From PMC3139092 (Journal of Biological Inorganic Chemistry, 2011) come the findings set out here.

One series has as its target T1, mutant Val87 (M11) (Priestia megaterium, UniProt P14779, E144G/E268V/E65G/F82I/F88V/G416S/H286Y/L189Q/R48L/Y199C).
T1 sequence (P14779 1-1049 R48L/E65G/F82I/F88V/E144G/L189Q/Y199C/E268V/H286Y/G416S): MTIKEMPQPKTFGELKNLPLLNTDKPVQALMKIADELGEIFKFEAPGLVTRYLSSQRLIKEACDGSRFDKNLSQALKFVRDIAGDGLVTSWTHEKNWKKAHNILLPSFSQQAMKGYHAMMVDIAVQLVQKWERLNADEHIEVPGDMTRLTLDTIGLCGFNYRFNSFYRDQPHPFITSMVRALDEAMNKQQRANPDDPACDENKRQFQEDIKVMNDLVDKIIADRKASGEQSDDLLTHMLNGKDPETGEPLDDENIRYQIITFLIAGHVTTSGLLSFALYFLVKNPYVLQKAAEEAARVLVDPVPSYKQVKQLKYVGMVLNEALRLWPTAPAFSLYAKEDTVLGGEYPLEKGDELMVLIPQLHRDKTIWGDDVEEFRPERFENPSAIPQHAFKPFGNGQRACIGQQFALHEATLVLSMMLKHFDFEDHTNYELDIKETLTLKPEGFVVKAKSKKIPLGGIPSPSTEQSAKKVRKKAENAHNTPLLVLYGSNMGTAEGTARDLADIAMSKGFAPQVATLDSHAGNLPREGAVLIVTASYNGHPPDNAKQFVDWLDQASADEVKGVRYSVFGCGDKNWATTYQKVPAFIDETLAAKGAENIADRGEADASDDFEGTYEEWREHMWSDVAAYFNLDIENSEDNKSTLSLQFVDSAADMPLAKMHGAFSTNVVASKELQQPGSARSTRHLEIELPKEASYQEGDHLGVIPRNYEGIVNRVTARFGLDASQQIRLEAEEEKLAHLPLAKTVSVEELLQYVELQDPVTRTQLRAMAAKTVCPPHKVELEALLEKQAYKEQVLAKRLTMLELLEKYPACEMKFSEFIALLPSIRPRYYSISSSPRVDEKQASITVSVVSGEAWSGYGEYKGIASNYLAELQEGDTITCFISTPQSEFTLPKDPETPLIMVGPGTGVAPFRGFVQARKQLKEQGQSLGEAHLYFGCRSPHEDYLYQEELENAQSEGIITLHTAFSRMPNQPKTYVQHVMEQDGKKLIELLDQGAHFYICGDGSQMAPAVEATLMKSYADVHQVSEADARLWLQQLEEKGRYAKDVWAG
The class given is biochemical, Bacillus megaterium. The following applies: 1 μM ketoconazole.

Series [1] in a line: Alkoxyresorufin-induced NADPH consumption. The class given is biochemical. The settings on record: 20 nM enzyme, 200 µM NADPH, 25 °C.
The nature of series [2]: Lauric acid induced NADPH consumption. The class given is biochemical. The following applies: 0.1 mM lauric acid.
Series [3] is described as follows: Alkoxyresorufin O-dealkylation by CYP102A1 M11 mutants and wild-type CYP102A1. The series is classed as biochemical. The settings on record: 20 µM alkoxyresorufin, 20 nM P450 BM3, 25 °C.
Setting [4] is: benzyloxyresorufin as the substrate, data not shown.

Where a chain is given by its changes, count along the chain named.

Consider `CC(=O)N1CCN(c2ccc(OCC3COC(Cn4ccnc4)(c4ccc(Cl)cc4Cl)O3)cc2)CC1` (centres unmarked) [ketoconazole], for which, at mutant Val87 (M11) (0.1 mM lauric acid), the “Inhibition of lauric acid induced NADPH consumption” value is “completely blocked”. On mutant Val87 (M11) (setting [4]), the “Inhibition of substrate-induced NADPH consumption” value is listed as “almost completely block” and the “Inhibition of the O-dealkylation reaction” value is given as “almost completely block”.

B1: Wild type (Phe87): Cytochrome P450 BM3 (CYP102A1) from Bacillus megaterium, wild type, Phe at position 87 (protein, UniProt P14779 1-1049, looked up)
Bifunctional cytochrome …: T1 sequence (P14779 1-1049 R48L/E65G/F82I/F88V/E144G/L189Q/Y199C/E268V/H286Y/G416S) with L48R, G65E, I82F, V88F, G144E, Q189L, C199Y, V268E, Y286H, S416G
Consider B1, for which the “Specific activity of NADPH consumption, DMSO” value in series [1] (no substrate, solvent DMSO (2%) only) is 45 nmol NADPH/min/nmol P450. In addition, the “Specific activity of alkoxyresorufin-induced NADPH consumption, side chain Ethyl” value in series [1] (substrate ethoxyresorufin 20 µM) is 3,970 nmol NADPH/min/nmol P450. Besides, in series [2], the “Effect of lauric acid on NADPH consumption” value was “strongly stimulated”. The “Specific activity of alkoxyresorufin O-dealkylation, side chain n-Heptyl” value in series [3] (substrate n-heptoxyresorufin) was 0.17 nmol resorufin/min/nmol P450. Moreover, the “Specific activity of alkoxyresorufin O-dealkylation, side chain n-Octyl” value in series [3] (substrate n-octoxyresorufin) is reported as 0.18 nmol resorufin/min/nmol P450.
